Key:
[1] = target: T1, full-length Ubl4a (residues 1–157), recombinant (Homo sapiens, UniProt P11441 1-157); assay: SPR; BAGS domain (residues 1048-1123) immobilised on a CM5 chip by amine coupling; wild-type and mutant Ubl4a as analytes; 298 K; HBS-P (10 mM HEPES, 150 mM NaCl, 0.05% Surfactant P20, pH 7.2); 30 μl/min; two-state reaction model, overall dissociation constant; settings: both partners purified
T1 construct: Ubl4a, Homo sapiens, residues 1-157; also called Ubl4a(1–157); full-length Ubl4a wild type; source: recombinant
T1 sequence (looked up): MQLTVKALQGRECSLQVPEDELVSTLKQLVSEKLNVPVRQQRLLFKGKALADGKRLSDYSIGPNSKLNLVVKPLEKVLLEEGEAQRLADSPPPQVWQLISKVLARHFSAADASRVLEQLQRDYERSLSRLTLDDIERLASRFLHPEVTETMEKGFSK

[2] = target: T2, full-length Ubl4a H106E mutant, recombinant (Homo sapiens, UniProt P11441 1-157, H106E); assay: as above; settings: both partners purified
T2 construct: Ubl4a, Homo sapiens, 157 amino acids, with H106E; also called H106E Ubl4a; source: recombinant
T2 sequence (looked up): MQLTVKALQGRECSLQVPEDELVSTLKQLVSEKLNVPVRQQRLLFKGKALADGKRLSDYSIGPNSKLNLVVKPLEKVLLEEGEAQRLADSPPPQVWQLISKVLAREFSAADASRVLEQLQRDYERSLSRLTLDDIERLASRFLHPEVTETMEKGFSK

B1: BAG6 BAGS domain (residues 1048–1123) (domain or fragment, human, UniProt P46379-2 1048-1123, looked up)
chain: MQGEGPQLLLSEAVSRAAKAAGARPLTSPESLSRDLEAPEVQESYRQQLRSDIQKRLQEDPNYSPQRFPNAQRAFA
notes: BAG6, C-terminal BAGS domain, residues 1048-1123; printed length of BAG6 1,126 residues; Removal of GST is told for the crystallised complex; also called BAG6(1048–1123)
With B1 the Kd [1] was 2.2 ± 0.5 nM and the Kd [2] was 1600 ± 80 nM.

From PMC4392246, “Structure of a BAG6 (Bcl-2-associated Athanogene 6)-Ubl4a (Ubiquitin-like Protein 4a) Complex Reveals a Novel Binding Interface That Functions in Tail-anchored Protein Biogenesis*” (The Journal of Biological Chemistry, 2015)
